Results as given in US20260258115A1 (MAPP BIOPHARMACEUTICAL, published 2026).

Each binder was assayed against RSV F on RSV-A2 virus (Respiratory syncytial virus (RSV-A2)) (assay: cell-based or functional assay).

| Binder | Neutralization IC50 (RSV subtype A) |
| --- | --- |
| ADI-41256 (antibody, V domains shown) VH: QVQLVQSGAEVKSPGSSATVSCKASGGTFGSYGISWVRQAPGQGLEWIGAIMPMFGTTNYAQKFQGRVTMTADESTSTVYMDVSSLRPDDTAVYYCVRDVFYDILTGYYDADYYHHYMDVWGKGTTVTVSS VL: DIVMTQSPLSLPVTLGQPASISCRSGQSLVHSDGNTYLNWFQQRPGQSPRRLIYKVSNRGSGVPDRFSGSGSGTDFTLKISRVEAEDVGVYFCMQGTHWPRTFGQGTKVDIK | 0.02 µg/mL |
| ADI-41253 (antibody, V domains shown) VH: EVQLVQSGPGLVKPSETLSLTCTVSGDSISSSDYSYYWGWIRQPPGKGLEWIASLSYSGKTYSQSSLKSRVIISVDTSKKQFSLKLSSVTAADTAVYYCAVTRCYVCTSEGDSFDMWGQGTMVTVSS VL: DIVLTQTPGTLSLSPGERATLSCRASQSISGNYLAWYQHKPGQAPRLLIYGASTRATGIPDRFSGSGSGTDFPLTISRLEPEDFAVYYCQQYATSPYTFGQGTKVDIK | 0.03 µg/mL |
| ADI-41249 (antibody, V domains shown) VH: QVQLVQSGAEVKKPGESLKISCQVSRDTSTTYWIGWVRQMPGKGLEWMGIIFPGDSDTRYSPSFQGQVTISADKSIMTAYLQLTSLKASDTAMYYCATQALRGAFDIWGQGTMVTVSS VL: DIRLTQSPSSLSASVGDRVTITCQASQDISNYLNWYQQKPGKAPKLLIYDASYLETGVPSRFSGSGSGTDFTFTISSLQPEDFATYYCQQYDDLLFTFGPGTKLEIK | 0.01 µg/mL |
| ADI-41243 (antibody, V domains shown) VH: QVQLVQSRAEVKKPGESLKISCKGSLHSFSNNWIGWVRQMPGKGLEWMGIIFPDDSDTRYSPSFQGQVTISADKSISTAYLQWSSLKASDTAIYYCGTVVTLIQGVADWGQGTLVTVSS VL: QPVLTQPHSVSESPGKTVTISCTRSSGSIDSSYVQWYQQRPGSSPTTVIYEDNLRPSGVPDRFSGSIDSSSNSASLTISGLKTEDEAEYYCQSYDSSNPVVFGGGTKLTVL | > 25 µg/mL |
| ADI-41244 (antibody, V domains shown) VH: QVTLKESGGGLIQPGGSLRLSCAVSGFTVSSKYMSWVRQAPGKGLEWVSVIYGGGSTYYTDSVKGRFTISRDNSNNTLYLQMNSLRAEDTAIYYCAREARSYNYDYVGNDAFDIWGQGTTVTVSS VL: DIVLTQTPDSLAVSLGERATINCKSSQSVLNNFNNKNYLAWYQQKPGQPPKLLIYWASTRESGVPDRFSGSGSGTDFTLTITSLQAEDVAIYYCQQYYRTPPYTFGQGTKVDIK | > 25 µg/mL |
| ADI-41239 (antibody, V domains shown) VH: QITLKESGPTLVKPTQTLTLTCTFSGFSLTTTGVGVGWIRQPPGKALEWLALIYWDDDKRYSPSLKNRITITKDTSKKQVVLTMTNMDPADTATYYCAHISTVVTYDSSGSYYVLINWFDPWGQGTLVTVSS VL: not shown | > 25 µg/mL |
| ADI-41254 (antibody, V domains shown) VH: EVQLVESGGGLVQSGGSLRLSCAASGFTFSSYEMNWVRQAPGKGLEWVSYTTNNGRTIYYADSVKGRFTISRDNAKNSLFLQMNGLRAEDTAVYYCARGIQFSRVDYAMDVWGQGTTVTVSS VL: SYELTQPPSVSGTPGQRITISCSGSSSNIASNTVNWYQHLPGTAPKLLIYSDNQRPSGVPDRFSGSKSGTSASLAISGLQSEDEADYYCAIWDDSLNASYVFGTGTKLTVL | > 25 µg/mL |
| ADI-41240 (antibody, V domains shown) VH: QVQLQQWGAGLLKPSETLSLICDVYGGSFSDYYWSWIRQSPGKGLEWIGEINHSGSTSFHPSLKSRISISIDTSNNQFSLNLSSMTAADTAVYYCARGTLRGYFDYWGQGTLVTVSS VL: EIVLTQSPSTLSAFVGDRVTITCRASQSISRWLAWYQQKPGKAPNLLISEASSLESGVPSRFSGSGSGTEFTLTISSLQPDDLGTYYCQQYNGYLWTFGQGTKVEIK | > 25 µg/mL |
| ADI-41236 (antibody, V domains shown) VH: QVQLVQSGGGLVKPGGSLRLSCTASGFTFSDYYMDWIRQAPGKGLEWVSSISSSSTYTKYADSVKGRFTISRDNAKNSLFLQMNSLRAEDTAVYYCVRNLGPYCSSTSCFVFDYWGQGTLVTVSS VL: QSVLTQPPSVSGAPGQRVSISCTGSSSNIGAGYEVHWYKQVPGTAPRLLMYDNTNRPSGVPDRVSGSKSGTSASLAITGLQAEDEADYYCQSYDNSLNKSVFGGGTKVTVL | > 25 µg/mL |
| ADI-41252 (antibody, V domains shown) VH: EVQLVQSGAEVKKPGESLKISCMGSGYNFPNYWIGWVRQMSGKGLEWMGIIYPDDSDTTYSPSFQGQVIFSADKSISTAYLQWSSLKASDTAMYFCVRLDKTTQIDFWGQGTLVTVSS VL: EIVLTQSPSSLSASVGDRVTITCQASQDISNYLNWYQQKPGKAPKLLIYDVSNLETGVPSRFSGSGSGTDFTFTISSLQPEDIATYYCQQHDNLPLTFGQGTRLEIK | > 25 µg/mL |
| ADI-41255 (antibody, V domains shown) VH: EVQLVESGGGLVQPGGSLRISCAASGLTFSSYAMSWVRQAPGQGLEWVSSVSGSGVSTYYADSVKGRFTISRDNSKNTLYLQMNSLRAEDTAVYYCAKEDYYHFYMDVWGNGTTVTVSS VL: not shown | > 25 µg/mL |
| ADI-41247 (antibody, V domains shown) VH: QVQLVQSGAEVKKPGASLQVSCKASGYTFTDSYFHWVRQAPGQGLEWMGRISPHSGGTNYAQKFQGRVTMTRDTSISTAYLELSRLRSDDTAVYYCATEGPRGPFRFDPWGQGTLVTVSS VL: NFMLTQPHSVSESPGKTVTISCTRSSGSIASNYVQWYQQRPGSSPTTVIYEDNQRPSGVPDRFSGSIDSSSNSASLTISGLMTEDEADYYCQSYDSSNWVFGGGTKLTVL | > 25 µg/mL |
| ADI-41248 (antibody, V domains shown) VH: QVQLVQSGGGVVQPGRSLRLSCAASGFTFSSYSMHWVRQAPGKGLEWMAVCWYDGSNIYYADSVKGRFTISRDNSKNTVYLQMNSLRAEDTAVYYCARDDRYCSGGTCLSAFDIWGQGTMVTVSS VL: ETTLTQSPSSLSASVGDRVTITCRASQSISSYLNWYQQKPGRAPKLLIYTTSSLQSGVSSRFSGSGSGTDFTLTINSLQPEDFATYYCQQSYSTPNTFGQGTKVEIK | > 25 µg/mL |
| ADI-41242 (antibody, V domains shown) VH: EVQLVESGGGVVQPGRSLRLSCAASGFPFSSYAMHWVRQAPGKGLEWVAVIWFEGNEKYFADSVEGRFTISRDNSKNTLYLQMNSLRAEDTARYYCARFYFGAFDIWGQGTLVTVSS VL: not shown | > 25 µg/mL |
| ADI-41250 (antibody, V domains shown) VH: QVQLQQWGAGLLKPSETLSLTCAVSGESLTGYFWSWIRQPPGKGLEWIGEVSHSGSTNYNPSLKSRVTMSVDTSKTQFSLKLNSVTAADTAVYYCARGYDYWSGTARYFDYWGQGILVTVSS VL: QPVLTQPASVSGSPGQSITISCTGTSSDVGGYNYVSWYQQHPGKAPKLMIYDVSNRPSGVSSRFSGSKSGNTASLTISGLQAEDEGDYYCSSYRSSTTSRVFGGGTKVTVL | > 25 µg/mL |
| ADI-41237 (antibody, V domains shown) VH: EVQLVESGGGLVKPGGSLRLSCAASGFTFSDYYMNWIRQAPGKGLEWVSDISPSSSYTNYADSVKGRFTISRDNAKNSLYLQMNSLRAEDTAMYYCARRGSCTGGVCSFDYWGQGTLVTVSS VL: QPGLTQPPSVSGAPGQRVTISCTGSSSNIGAGYDVNWYQQLPGTAPKLLIYDNSNRPSGVPDRFSGSKSGTSASLAITGLQAEDEADFYCQSYDSSLSGFVFGTGTKVTVL | 0.04 µg/mL |
| ADI-41245 (antibody, V domains shown) VH: QVQLVESGGGLVKPGGSLRLSCAASGFSFSAYYMSWIRQAPGKGLEWISNISGGSSYANYADSVEGRFTISRDNAKNSLYLQMNSLRAEDTAVYYCAREFQTYYYMDVWGKGTTVTVSS VL: QPVLTQPPSVSGAPGQRVTISCTGSSSNIGAGYEVHWYQQLPGTAPKLLIYGNNNRPSGVPDRFSGSKSGTSASLAITGLQAEDEADYYCQSYDSSLSGSVFGGGTKLTVL | 0.71 µg/mL |
| ADI-41251 (antibody, V domains shown) VH: EVQLVESGGGLVKPGGSLRLSCAASGFTFSDYYMTWIRQAPGKGLEWVSNISGGSSYTNYADSVKGRFTISRDNAKNSVYLQMNSLRAEDTAVYYCARVGCSGGVCNFFLDYWGQGTLVTVSS VL: QSVLTQPPSVSGAPGQRVTISCTGSSSNIGAGYDVHWYQQLPGTAPKLLIYDNTNRPSGVPDRFSGSKSGTSASLAITGLQAEDEADYYCQSYDSSLSGYVFGTGTKVTVL | 0.11 µg/mL |
| ADI-41246 (antibody, V domains shown) VH: EVQLLESGPGLVKPSETLSLTCIVSGGSISSYNWNWIRQPPGKGLEWIGYIYNSGSTNYNPSLKSRVTISVDTSKNQFSLKLSSVTAADTAVYYCARYFDYGSGGFDYWGQGTLVTVSS VL: ETTLTQSPGTLSLSPGERATLSCRASQSVTSTYLAWYQQKPGQAPRLLIYGASSRATGIPDRFSGSGSGTDFTLTISRLEPEDFAVYYCQQFDSSLTFGGGTKVEIK | > 25 µg/mL |
| ADI-41235 (antibody, V domains shown) VH: QVQLQQWGAGLLKPSETLSLTCGVYGESFSGHYWSWIRQPPGKGLEWMGEIHHSGTTNYNPSLKSRVTISVDTSKNQFSLKLNSVTAADTAVYYCARNPAEDILTGYSPPFHYYYMDVWGKGTTVTVSS VL: QSVLTQPPSVSGAPGQRVTISCTGSSSNIGAGYDVHWYQQIPGTAPKLLIHSNNNRPSGVPDRFSGSKSGTSASLAITGLQAEDEADYYCQSYDSSLSVVFGGGTKLTVL | > 25 µg/mL |
| ADI-41238 (antibody, V domains shown) VH: EVQLLESGGGLVKPGGSLRLSCAASGFTFRDYYMSWIRQAPGKGLEWVSYISSSSSYTEYADSVKGRFTISRDNAKKSLYLQMNSLRTEDTAVYYCARVITQAGTGTTYYMDVWGKGTTVTVSS VL: QSVLTQPPSVSGAPGQRVTISCTGSSSNIGTGYDVHWYQQLPGTAPKLLIYANNNRPSGVPDRFSGSKSGTSASLAITGLQAEDEADYYCQSYDSSLSLVFGGGTKLTVL | 0.13 µg/mL |
| ADI-41241 (antibody, V domains shown) VH: QVQLVQSGAEVKKPGASVQVSCKASGYTFTGDYMHWVRQAPGQGLEWMGRINPNSGGTNYAQKFQGRVTMTRDTSISTAYMELSRLRSDDTAVYYCARAAAEYSSSSPTSYYYMDVWGKGTTVTVSS VL: EIQMTQSPSSLSASVGDRVTITCRASQNIYSFLNWYQQKPGKAPKLLIYAASSLQSGVPSRFSGSGSATDFTLTISSLQPEDFATYYCQQSYSPPQITFGQGTKVDIK | 18.8 µg/mL |
